In this data set the test system is K4 kissing-loop RNA reporter. The data set is described as follows: apparent KD of K4 kissing-loop reporter; higher = weaker reporter binding. The note with it: Eterna round: R107. The protocol:
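RNA-MaP round R107: designed RNA switches with theophylline, tryptophan, arginine or FMN aptamers are transcribed on-chip within common flanks. They are titrated with a labelled K4 kissing-loop RNA reporter in RNA-MaP buffer (100 mM Tris pH 7.5, 80 mM KCl, 4 mM MgCl2), without ligand or with the indicated ligand. Median apparent KD per design.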

The mark [1] stands for this setting: input ligand: theophylline 20 uM.
The mark [2] stands for this setting: input ligand: tryptophan 2.4 mM.
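Further: bound reporter read as fluorescence of individual clusters on recovered sequencing chips by microscopy, with normalized cluster intensities fitted with a binding model.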

On to “AAACUUGCAGUGAUGUUGCAAGUAGGUGAUACCAGCAUCGAAAGAUGCCCUUGGCAGCACCAACACUGCAAGUAAGUAUCACCAA [(H1)-(H2)-(T1)-(T2)-(H)'-(T)'_Design1]”, for which the “apparent KD of K4 kissing-loop reporter” value is, setting by setting: (input ligand: FMN 200 uM) 116 nM; (input ligand: arginine 13.2 mM) 138 nM; (input ligand: none) 128 nM; under setting [1], 161 nM; under setting [2], 111 nM.

As for “AUCAUUGAGUGAUGUUCAAUGGGUUUUCCCAAGGAUAUUCGGAGCUGAAGAAGGUGGCCCUCGAUAUCAGUAUCAACCUGAAAGC [theeternabot_exclusion_KL_FMN_A_11]”, the “apparent KD of K4 kissing-loop reporter” value amounted to 360 nM (input ligand: FMN 200 uM); 340 nM (input ligand: arginine 13.2 mM); 381 nM (input ligand: none); 388 nM under setting [1]; 243 nM under setting [2].

On to “AGUAGUUGGACGGCCGCCACUAGAACGCCUUUGCCAAAGGCAGAGGACUAGAGUGAUGUUCUAGCUAGGACCGGGUCCAACUACA [Omei KL Tryp B SS A v4]”, for which the “apparent KD of K4 kissing-loop reporter” value is, setting by setting: (input ligand: FMN 200 uM) 224 nM; (input ligand: arginine 13.2 mM) 232 nM; (input ligand: none) 308 nM; under setting [1], 127 nM; under setting [2], 1220 nM.

For the sequence “CCAGGAUGAUGAGGAUGAUGAAUUACUGAAGGAGCGCAUAUGGUUGCAGGUAGGUCGCGGUGAAUAAGUAUAGUGAUGUUAUGCC [SSArgA.X]”, the “apparent KD of K4 kissing-loop reporter” value by setting is: (input ligand: FMN 200 uM) 530 nM; (input ligand: arginine 13.2 mM) 407 nM; (input ligand: none) 594 nM; under setting [1], 448 nM; under setting [2], 427 nM.

“AUUUAUUCGAGUGAUGUUCGUGAUUUUUCAGAGGAUAUGCGUAAUAGCAGAAGGCUGUAUUUAUAUAUAUUUUGAUUUUUUUAAA [JR_Nu3_ExcFMNA_Sub024]”: the “apparent KD of K4 kissing-loop reporter” value by setting is: (input ligand: FMN 200 uM) 82.2 nM; (input ligand: arginine 13.2 mM) 122 nM; (input ligand: none) 64.6 nM; under setting [1], 99.4 nM; under setting [2], 61.8 nM.

As for “AGGCACGAGCAAGGAUAUCGAGUAGAGUGAUGUUCUGCCUGGGUUGGCGCGCAAGGGCCUUCCCAGCGAGAAGGUGCUCGUGCCU [#2 Same State - FMN A Attempt #11 (HarryS)]”, the “apparent KD of K4 kissing-loop reporter” value is, setting by setting: (input ligand: FMN 200 uM) 221 nM; (input ligand: arginine 13.2 mM) 840 nM; (input ligand: none) 916 nM; under setting [1], 682 nM; under setting [2], 634 nM.

With “AAAUUCUUUUUUUUAUUUAAGUUUUCAGAAGGAGCGUGGUAGUACACAGGUAGGUCGCUGAAUUUUGGGCUAGUGAUGUUAGUUA [whbob_SS_Arginine_A_sa114]”, the “apparent KD of K4 kissing-loop reporter” value reads like this: (input ligand: FMN 200 uM) 144 nM; (input ligand: arginine 13.2 mM) 195 nM; (input ligand: none) 200 nM; under setting [1], 191 nM; under setting [2], 160 nM.

As for “UAGCGUAUCAGAGGAUAUGAUAUGUUAUGCAGUGAUGUUGCAUGAUGUAGCAGAAUUCUGAGUGUAUCAGAAGGCUGAUAUGCUA [FMN B Ex t3]”, the “apparent KD of K4 kissing-loop reporter” value (input ligand: FMN 200 uM) worked out at 171 nM; the “apparent KD of K4 kissing-loop reporter” value (input ligand: arginine 13.2 mM) came out at 87.8 nM; the “apparent KD of K4 kissing-loop reporter” value (input ligand: none) amounted to 90.5 nM; the “apparent KD of K4 kissing-loop reporter” value under setting [1] stood at 78.9 nM; the “apparent KD of K4 kissing-loop reporter” value under setting [2] was determined as 88.6 nM.

On to “AGUCCGCUCCAAGGAUAUAGUCCGGCUGCGCGUCAGUGAUGUUGAAGAAGUAUCGCGUCUCUAUAGCUAGAAGGUGGCGCAAUUG [theeternabot_sameState_KL_FMN_B_20]”, for which the “apparent KD of K4 kissing-loop reporter” value stood at 715 nM (input ligand: FMN 200 uM); 471 nM (input ligand: arginine 13.2 mM); 989 nM (input ligand: none); 696 nM under setting [1]; 782 nM under setting [2].

Turning to “GUUACGCAUGGAAGGAGCGCAUGCUCAACAAUAAGCUCAGUGAUGUUGAGCAAAAUUAAAAUGCAGGUAGGUCGCCAUGUGUAAC [Ex Arginine B K4 28]”, the “apparent KD of K4 kissing-loop reporter” value runs as follows: (input ligand: FMN 200 uM) 542 nM; (input ligand: arginine 13.2 mM) 519 nM; (input ligand: none) 576 nM; under setting [1], 528 nM; under setting [2], 555 nM.

In the case of “GCAUCCAUGGCAGGAUAUAGGUUCGUGGAGUGAUGUUCCAUAGCCCGAGUGAUGUUCGUUAUCCGCCUAGAAGGGCCAUGGAUGC [whbob_Ex_FMNB__2th213]”, the “apparent KD of K4 kissing-loop reporter” value is, setting by setting: (input ligand: FMN 200 uM) 247 nM; (input ligand: arginine 13.2 mM) 192 nM; (input ligand: none) 227 nM; under setting [1], 219 nM; under setting [2], 203 nM.

Take “GGUAGCAUGGCGGCCGCCACUAACAACCUCACCUGCGGCUCGAUCGAGUGAUGUUCGAACGCAAUUAGGACCGGGCCAUGCUACC”: the “apparent KD of K4 kissing-loop reporter” value was 243 nM (input ligand: FMN 200 uM); 64.8 nM (input ligand: arginine 13.2 mM); 141 nM (input ligand: none); 143 nM under setting [1]; 122 nM under setting [2].

Regarding “AGAGCGGUCGAAGGAUAUGAGACAACCAACGGUGAGUGAUGUUUGCCGAGUAAACCUCUAGUUGCGUCAGAAGGUCGGCUCAGUC [theeternabot_sameState_KL_FMN_B_25]”, the “apparent KD of K4 kissing-loop reporter” value is, setting by setting: (input ligand: FMN 200 uM) 595 nM; (input ligand: arginine 13.2 mM) 460 nM; (input ligand: none) 633 nM; under setting [1], 625 nM; under setting [2], 520 nM.

As for “AAGUGAUGUUGUAGUGAUGUUGUGAUGUUGCAGGAUAUAUAGUGAUGUAGAAGGGUAUGUGCAGUGUUGUUAUUUGAGUGUUGAU [zffdmullin]”, the “apparent KD of K4 kissing-loop reporter” value is 89.7 nM (input ligand: FMN 200 uM); 41.4 nM (input ligand: arginine 13.2 mM); 78.7 nM (input ligand: none); 73.8 nM under setting [1]; 66.9 nM under setting [2].

Turning to “UGAUAGGACAGAAGGAGCGGAGGUCGUCAAAGACGACCAAUACGUUAAAUAGGAGUGAUGUUCCAGGUAGGUCGCUGUCCUAUCU [ArgBX 30 #SwitchBubble #StaticStem]”, the “apparent KD of K4 kissing-loop reporter” value runs as follows: (input ligand: FMN 200 uM) 123 nM; (input ligand: arginine 13.2 mM) 119 nM; (input ligand: none) 123 nM; under setting [1], 129 nM; under setting [2], 106 nM.

For the sequence “UCUCGGGCCAGUGAUGUUGGCGGCUAGUGGCGAGGACCGGUACGGCCGCCACUCGGCGCAGCAGCGGAGUGAUGUUUCGUGAGUA [Same State Tryptophan A GF 17]”, the “apparent KD of K4 kissing-loop reporter” value runs as follows: (input ligand: FMN 200 uM) 363 nM; (input ligand: arginine 13.2 mM) 301 nM; (input ligand: none) 377 nM; under setting [1], 441 nM; under setting [2], 198 nM.

Consider “GAAAGGAGUGAUGUUCCUGAUAAUUUUAUGAAGGAUAUUCGAUGUGGAAGAAGGUCAUGCAGGCAGCAAGGUUGCGAUCAUAUCA [theeternabot_exclusion_KL_FMN_A_40]”, for which the “apparent KD of K4 kissing-loop reporter” value is 131 nM (input ligand: FMN 200 uM); 158 nM (input ligand: arginine 13.2 mM); 143 nM (input ligand: none); 185 nM under setting [1]; 128 nM under setting [2].
